Experimental data from article PMC9441902.

Molecular target: LrsL (quorum quenching lactonase of Labrenzia sp. VG12), recombinant catalytic domain without the N-terminal 47 residues (Labrenzia sp. VG12)
Assay: SEC-MALS; Superdex 200 10/300; 5.5 mg/ml LrsL injected; 20 mM HEPES, pH 7.5, 200 mM NaCl, 1 mM TCEP, 0.01% NaN3

LrsL (quorum quenching lactonase of Labrenzia sp. VG12), recombinant catalytic domain without the N-terminal 47 residues (enzyme)
stoichiometry N: 2
